The Kd is the constant that tells how readily two partners part at equilibrium.

Data on 20 molecules can be found in patent US20160159924A1 (Novo Nordisk, published 2016).

The target of the test is T1, recombinant human sc-uPA (human, UniProt P00749 21-431).
T1 construct: 411 amino acid single-chain zymogen expressed in HEK293; the 20-residue signal peptide is not present in the mature protein; also called human single-chain uPA; pro-uPA
Briefly: SPR, mAb immobilised. Here is the method: The binding affinity to recombinant human sc-uPA protein (SEQ ID NO:1) was measured by surface plasmon resonance (SPR).
The experiments were performed on a Biacore™ instrument (GE Healthcare) and analysed with the BIAcore 4000 Evaluation Software. Anti-human uPA mAb variants were directly immobilized at 150-600 RU on flow cells of a CM5 sensor chip (GE Healthcare; cat. # BR-1000-12) via amine coupling, respectively. Recombinant human sc-uPA was diluted in HBS-N (GE Healthcare Cat BR-1006-70) with 1% BSA buffer with a dilution factor 3× ranging 1000-0.13 nM. Recombinant human sc-uPA was injected for 60 s, followed by a 600 s dissociation phase. Binding curves were measured at 25° C. with a flow rate of 30 μL/min. Regeneration of the chip surface was performed with pH1.5 Glycine for 25 s at 30 μl/min. Determination of the kinetic parameters was performed by fitting with a 1:1 binding model. Binding affinities were calculated and are stated in Table 17 below.

B1: rec0266-0000-0010-VH_D95A (antibody, mouse IgG1, V domains shown)
VH: DVKLVESGGGLVKPGGSLKLSCVASGFTFSSYTMSWVRQTPEKRLEWVATISGGGSHIYYADSVKGRFTISRDNAKNTLYLQMSSLKSEDTAIYYCTRAGRDGSWFAYWGQGTLVTVSA
VL: DIVMTQSPATLSVTPGDRVSLSCRTSQSIGDYLHWYQQKSHESPRLLIKYVSQSISGIPSRFSGSGSGSDFTLSINSVESEDVGVYYCQNSHSFPLTFGSGTKLELKR
Regarding B1, the Kd came to 2.6 nM.

B2: rec0266-0000-0010-VH_D95I (antibody, mouse IgG1, V domains shown)
VH: DVKLVESGGGLVKPGGSLKLSCVASGFTFSSYTMSWVRQTPEKRLEWVATISGGGSHIYYADSVKGRFTISRDNAKNTLYLQMSSLKSEDTAIYYCTRIGRDGSWFAYWGQGTLVTVSA
VL: DIVMTQSPATLSVTPGDRVSLSCRTSQSIGDYLHWYQQKSHESPRLLIKYVSQSISGIPSRFSGSGSGSDFTLSINSVESEDVGVYYCQNSHSFPLTFGSGTKLELKR
Consider B2, for which the dissociation constant (Kd) came to 1.4 nM.

B3: rec0266-0000-0010-VH_D98E (antibody, mouse IgG1, V domains shown)
VH: DVKLVESGGGLVKPGGSLKLSCVASGFTFSSYTMSWVRQTPEKRLEWVATISGGGSHIYYADSVKGRFTISRDNAKNTLYLQMSSLKSEDTAIYYCTRDGREGSWFAYWGQGTLVTVSA
VL: DIVMTQSPATLSVTPGDRVSLSCRTSQSIGDYLHWYQQKSHESPRLLIKYVSQSISGIPSRFSGSGSGSDFTLSINSVESEDVGVYYCQNSHSFPLTFGSGTKLELKR
As for B3, the Kd worked out at 4.9 nM.

B4: rec0266-0000-0010-VH_D95Y (antibody, mouse IgG1, V domains shown)
VH: DVKLVESGGGLVKPGGSLKLSCVASGFTFSSYTMSWVRQTPEKRLEWVATISGGGSHIYYADSVKGRFTISRDNAKNTLYLQMSSLKSEDTAIYYCTRYGRDGSWFAYWGQGTLVTVSA
VL: DIVMTQSPATLSVTPGDRVSLSCRTSQSIGDYLHWYQQKSHESPRLLIKYVSQSISGIPSRFSGSGSGSDFTLSINSVESEDVGVYYCQNSHSFPLTFGSGTKLELKR
Consider B4, for which the Kd was 5 nM.

B5: rec0266-0000-0010-VH_D95T (antibody, mouse IgG1, V domains shown)
VH: DVKLVESGGGLVKPGGSLKLSCVASGFTFSSYTMSWVRQTPEKRLEWVATISGGGSHIYYADSVKGRFTISRDNAKNTLYLQMSSLKSEDTAIYYCTRTGRDGSWFAYWGQGTLVTVSA
VL: DIVMTQSPATLSVTPGDRVSLSCRTSQSIGDYLHWYQQKSHESPRLLIKYVSQSISGIPSRFSGSGSGSDFTLSINSVESEDVGVYYCQNSHSFPLTFGSGTKLELKR
For the molecule B5, the dissociation constant (Kd) turned out to be 1.5 nM.

B6: rec0266-0000-0010-VH_D98A (antibody, mouse IgG1, V domains shown)
VH: DVKLVESGGGLVKPGGSLKLSCVASGFTFSSYTMSWVRQTPEKRLEWVATISGGGSHIYYADSVKGRFTISRDNAKNTLYLQMSSLKSEDTAIYYCTRDGRAGSWFAYWGQGTLVTVSA
VL: DIVMTQSPATLSVTPGDRVSLSCRTSQSIGDYLHWYQQKSHESPRLLIKYVSQSISGIPSRFSGSGSGSDFTLSINSVESEDVGVYYCQNSHSFPLTFGSGTKLELKR
For B6, the dissociation constant (Kd) is 0.95 nM.

B7: rec0266-0000-0010-VH_D95K (antibody, mouse IgG1, V domains shown)
VH: DVKLVESGGGLVKPGGSLKLSCVASGFTFSSYTMSWVRQTPEKRLEWVATISGGGSHIYYADSVKGRFTISRDNAKNTLYLQMSSLKSEDTAIYYCTRKGRDGSWFAYWGQGTLVTVSA
VL: DIVMTQSPATLSVTPGDRVSLSCRTSQSIGDYLHWYQQKSHESPRLLIKYVSQSISGIPSRFSGSGSGSDFTLSINSVESEDVGVYYCQNSHSFPLTFGSGTKLELKR
As to B7, the equilibrium dissociation constant (Kd) worked out at 12 nM.

B8: rec0266-0000-0010-VH_D95H (antibody, mouse IgG1, V domains shown)
VH: DVKLVESGGGLVKPGGSLKLSCVASGFTFSSYTMSWVRQTPEKRLEWVATISGGGSHIYYADSVKGRFTISRDNAKNTLYLQMSSLKSEDTAIYYCTRHGRDGSWFAYWGQGTLVTVSA
VL: DIVMTQSPATLSVTPGDRVSLSCRTSQSIGDYLHWYQQKSHESPRLLIKYVSQSISGIPSRFSGSGSGSDFTLSINSVESEDVGVYYCQNSHSFPLTFGSGTKLELKR
Turning to B8, the Kd came out at 6.5 nM.

B9: rec0266-0000-0010-VH_D95E (antibody, mouse IgG1, V domains shown)
VH: DVKLVESGGGLVKPGGSLKLSCVASGFTFSSYTMSWVRQTPEKRLEWVATISGGGSHIYYADSVKGRFTISRDNAKNTLYLQMSSLKSEDTAIYYCTREGRDGSWFAYWGQGTLVTVSA
VL: DIVMTQSPATLSVTPGDRVSLSCRTSQSIGDYLHWYQQKSHESPRLLIKYVSQSISGIPSRFSGSGSGSDFTLSINSVESEDVGVYYCQNSHSFPLTFGSGTKLELKR
Take B9: the equilibrium dissociation constant (Kd) worked out at 2 nM.

B10: rec0266-0000-0010-VH_D98G (antibody, mouse IgG1, V domains shown)
VH: DVKLVESGGGLVKPGGSLKLSCVASGFTFSSYTMSWVRQTPEKRLEWVATISGGGSHIYYADSVKGRFTISRDNAKNTLYLQMSSLKSEDTAIYYCTRDGRGGSWFAYWGQGTLVTVSA
VL: DIVMTQSPATLSVTPGDRVSLSCRTSQSIGDYLHWYQQKSHESPRLLIKYVSQSISGIPSRFSGSGSGSDFTLSINSVESEDVGVYYCQNSHSFPLTFGSGTKLELKR
In the case of B10, the Kd was found to be 2.4 nM.

B11: rec0266-0000-0010-VH_D98F (antibody, mouse IgG1, V domains shown)
VH: DVKLVESGGGLVKPGGSLKLSCVASGFTFSSYTMSWVRQTPEKRLEWVATISGGGSHIYYADSVKGRFTISRDNAKNTLYLQMSSLKSEDTAIYYCTRDGRFGSWFAYWGQGTLVTVSA
VL: DIVMTQSPATLSVTPGDRVSLSCRTSQSIGDYLHWYQQKSHESPRLLIKYVSQSISGIPSRFSGSGSGSDFTLSINSVESEDVGVYYCQNSHSFPLTFGSGTKLELKR
B11: the Kd came out at 1.5 nM.

B12: rec0266-0000-0010-VH_D95G (antibody, mouse IgG1, V domains shown)
VH: DVKLVESGGGLVKPGGSLKLSCVASGFTFSSYTMSWVRQTPEKRLEWVATISGGGSHIYYADSVKGRFTISRDNAKNTLYLQMSSLKSEDTAIYYCTRGGRDGSWFAYWGQGTLVTVSA
VL: DIVMTQSPATLSVTPGDRVSLSCRTSQSIGDYLHWYQQKSHESPRLLIKYVSQSISGIPSRFSGSGSGSDFTLSINSVESEDVGVYYCQNSHSFPLTFGSGTKLELKR
Regarding B12, the Kd stood at 12 nM.

B13: rec0266-0000-0010-VH_D98H (antibody, mouse IgG1, V domains shown)
VH: DVKLVESGGGLVKPGGSLKLSCVASGFTFSSYTMSWVRQTPEKRLEWVATISGGGSHIYYADSVKGRFTISRDNAKNTLYLQMSSLKSEDTAIYYCTRDGRHGSWFAYWGQGTLVTVSA
VL: DIVMTQSPATLSVTPGDRVSLSCRTSQSIGDYLHWYQQKSHESPRLLIKYVSQSISGIPSRFSGSGSGSDFTLSINSVESEDVGVYYCQNSHSFPLTFGSGTKLELKR
For the molecule B13, the equilibrium dissociation constant (Kd) worked out at 1.7 nM.

B14: rec0266-0000-0010-VH_D98I (antibody, mouse IgG1, V domains shown)
VH: DVKLVESGGGLVKPGGSLKLSCVASGFTFSSYTMSWVRQTPEKRLEWVATISGGGSHIYYADSVKGRFTISRDNAKNTLYLQMSSLKSEDTAIYYCTRDGRIGSWFAYWGQGTLVTVSA
VL: DIVMTQSPATLSVTPGDRVSLSCRTSQSIGDYLHWYQQKSHESPRLLIKYVSQSISGIPSRFSGSGSGSDFTLSINSVESEDVGVYYCQNSHSFPLTFGSGTKLELKR
As to B14, the Kd is 2 nM.

B15: rec0266-0000-0010-VH_D95S (antibody, mouse IgG1, V domains shown)
VH: DVKLVESGGGLVKPGGSLKLSCVASGFTFSSYTMSWVRQTPEKRLEWVATISGGGSHIYYADSVKGRFTISRDNAKNTLYLQMSSLKSEDTAIYYCTRSGRDGSWFAYWGQGTLVTVSA
VL: DIVMTQSPATLSVTPGDRVSLSCRTSQSIGDYLHWYQQKSHESPRLLIKYVSQSISGIPSRFSGSGSGSDFTLSINSVESEDVGVYYCQNSHSFPLTFGSGTKLELKR
As to B15, the Kd is 4 nM.

B16: rec0266-0000-0010-VH_D95V (antibody, mouse IgG1, V domains shown)
VH: DVKLVESGGGLVKPGGSLKLSCVASGFTFSSYTMSWVRQTPEKRLEWVATISGGGSHIYYADSVKGRFTISRDNAKNTLYLQMSSLKSEDTAIYYCTRVGRDGSWFAYWGQGTLVTVSA
VL: DIVMTQSPATLSVTPGDRVSLSCRTSQSIGDYLHWYQQKSHESPRLLIKYVSQSISGIPSRFSGSGSGSDFTLSINSVESEDVGVYYCQNSHSFPLTFGSGTKLELKR
Turning to B16, the Kd was found to be 0.8 nM.

B17: rec0266-0000-0010-VH_D95L (antibody, mouse IgG1, V domains shown)
VH: DVKLVESGGGLVKPGGSLKLSCVASGFTFSSYTMSWVRQTPEKRLEWVATISGGGSHIYYADSVKGRFTISRDNAKNTLYLQMSSLKSEDTAIYYCTRLGRDGSWFAYWGQGTLVTVSA
VL: DIVMTQSPATLSVTPGDRVSLSCRTSQSIGDYLHWYQQKSHESPRLLIKYVSQSISGIPSRFSGSGSGSDFTLSINSVESEDVGVYYCQNSHSFPLTFGSGTKLELKR
Regarding B17, the Kd was 4.7 nM.

B18: rec0266-0000-0010-VH_D95F (antibody, mouse IgG1, V domains shown)
VH: DVKLVESGGGLVKPGGSLKLSCVASGFTFSSYTMSWVRQTPEKRLEWVATISGGGSHIYYADSVKGRFTISRDNAKNTLYLQMSSLKSEDTAIYYCTRFGRDGSWFAYWGQGTLVTVSA
VL: DIVMTQSPATLSVTPGDRVSLSCRTSQSIGDYLHWYQQKSHESPRLLIKYVSQSISGIPSRFSGSGSGSDFTLSINSVESEDVGVYYCQNSHSFPLTFGSGTKLELKR
For B18, the Kd came out at 12 nM.

B19: rec0266-0000-0010-VH_D95R (antibody, mouse IgG1, V domains shown)
VH: DVKLVESGGGLVKPGGSLKLSCVASGFTFSSYTMSWVRQTPEKRLEWVATISGGGSHIYYADSVKGRFTISRDNAKNTLYLQMSSLKSEDTAIYYCTRRGRDGSWFAYWGQGTLVTVSA
VL: DIVMTQSPATLSVTPGDRVSLSCRTSQSIGDYLHWYQQKSHESPRLLIKYVSQSISGIPSRFSGSGSGSDFTLSINSVESEDVGVYYCQNSHSFPLTFGSGTKLELKR
On to B19, for which the Kd is 1.3 nM.

B20: rec0266-0000-0010-VH_D95P (antibody, mouse IgG1, V domains shown)
VH: DVKLVESGGGLVKPGGSLKLSCVASGFTFSSYTMSWVRQTPEKRLEWVATISGGGSHIYYADSVKGRFTISRDNAKNTLYLQMSSLKSEDTAIYYCTRPGRDGSWFAYWGQGTLVTVSA
VL: DIVMTQSPATLSVTPGDRVSLSCRTSQSIGDYLHWYQQKSHESPRLLIKYVSQSISGIPSRFSGSGSGSDFTLSINSVESEDVGVYYCQNSHSFPLTFGSGTKLELKR
For B20, the Kd was 2.7 nM.
